Laboratory results published in the supplement of paper PMC9170038.

Test system: K4 kissing-loop RNA reporter
Assay: apparent KD of K4 kissing-loop reporter; higher = weaker reporter binding
Settings: Eterna round: R107
Procedure: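 RNA-MaP round R107: designed RNA switches with theophylline, tryptophan, arginine or FMN aptamers are transcribed on-chip within common flanks. They are titrated with a labelled K4 kissing-loop RNA reporter in RNA-MaP buffer (100 mM Tris pH 7.5, 80 mM KCl, 4 mM MgCl2), without ligand or with the indicated ligand. Median apparent KD per design.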

[1] = input ligand: theophylline 20 uM
[2] = input ligand: tryptophan 2.4 mM
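Also: bound reporter read as fluorescence of individual clusters on recovered sequencing chips by microscopy, with normalized cluster intensities fitted with a binding model.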

Sequence | apparent KD of K4 kissing-loop reporter (input ligand: FMN 200 uM) [nM] | apparent KD of K4 kissing-loop reporter (input ligand: arginine 13.2 mM) [nM] | apparent KD of K4 kissing-loop reporter (input ligand: none) [nM] | apparent KD of K4 kissing-loop reporter [1] [nM] | apparent KD of K4 kissing-loop reporter [2] [nM]
AAAACGCUGGAUGAAUAACAUCUAGCGAAUCGAGGACCGGUACGGCCGCCACUCGGAGCUAAACUGCGAGUGAUGUUCGUAAAAU [Mat - Mod of OpenEnded 3 - D18] | 405 | 223 | 588 | 426 | 428
AAAAGCCUACAGGAUACCAGCCGAAUACUAAAAGGCUGGAGUGAUGUUCCAGCUUGCCGCGGCCCUUGGCAGCCUAGCUGGGUGA [Soatriti] | 248 | 258 | 507 | 341 | 286
AAAAUAAACCAGUGAUGUUGGUAACCAGAUACCAGCGACGAAAGUCGCCCUUGGCAGCUGUGGACGUACAAAAUAAGUACGUCCU | 218 | 264 | 257 | 223 | 199
AAAAUAAACCAGUGAUGUUGGUAUCCGGAUACCAGCGAUAAUCAUCGCCCUUGGCAGCCGCGGACGUACAAAAUAAGUACGUCCU [MatMod 14 - Jieux - Same State - Theophylline A] | 208 | 135 | 175 | 268 | 182
AAAAUAAAGCAGUGAUGUUGCAUAUGAGAAGGAGCGCACGAAAGUGCAGGUAGGUCGCUCAGCCAAGUGGACGAAAACGUCCACA [#OpenEnded 9 #K4Early] | 107 | 172 | 119 | 168 | 93.7
AAAAUAAAUCAGUGAUGUUGGUAUCCGGAUACCAGCGAUAAUCAUCGCCCUUGGCAGCCGUGGACGUACAAAAUAAGUACGUCCU [MatMod 16 - Jieux - Same State - Theophylline A] | 137 | 104 | 168 | 171 | 183
AAAAUAACCCAGUGAUGUUGGUCUCCAGAUACCAGCGACGAAAGUCGCCCUUGGCAGCUGUGGACGUACAAAAUAAGUACGUCCU | 661 | 629 | 776 | 485 | 558
AAAAUAAUCCAGUGAUGUUGGUCUCCAGAUACCAGCGACGAAAGUCGCCCUUGGCAGCUGUGGACGUACAAAAUAAGUACGUCCU | 366 | 416 | 464 | 345 | 314
AAACAUUGGUCGGAUACCAGCUGAUCGGAAACGAUCUUGCUGGAGUGAUGUUCCAAGUAAAGCCCUUGGCAGCCGACCGAUGAAA [MAT - Same State Theophlline B - Mod of Eli - D20] | 140 | 50.4 | 63.2 | 135 | 85.8
